Test results as given in US20240092934A1 (FAMEWAVE, published 2024).

T1: recombinant human CEACAM-1 (R&D Systems cat. no. 2244-CM-050) (human, UniProt P13688 35-428)
T1 construct: Coated on the ELISA plate at 0.5 ug/ml
T1 sequence (looked up): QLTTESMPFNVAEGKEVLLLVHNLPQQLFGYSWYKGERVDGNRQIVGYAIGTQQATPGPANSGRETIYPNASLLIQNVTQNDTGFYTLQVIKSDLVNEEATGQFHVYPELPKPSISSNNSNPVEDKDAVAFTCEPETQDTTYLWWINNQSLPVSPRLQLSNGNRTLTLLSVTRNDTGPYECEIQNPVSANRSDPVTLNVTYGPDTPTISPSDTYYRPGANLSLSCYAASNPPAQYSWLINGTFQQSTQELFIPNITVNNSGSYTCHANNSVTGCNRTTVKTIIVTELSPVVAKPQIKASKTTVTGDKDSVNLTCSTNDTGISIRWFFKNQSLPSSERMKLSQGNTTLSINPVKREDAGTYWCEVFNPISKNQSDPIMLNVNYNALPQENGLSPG

B1: humanized anti-CEACAM-1 variant VH4/VK2, IgG1 (antibody, V domains shown)
VH: QVQLVQSGAEVKKPGASVKVSCKASGYAFTNNLIEWVRQAPGQGLEWIGVINPGSGDTNYNEKFKGRATLTADKSISTAYMELSRLRSDDTAVYYCARGDYYGGFAVDYWGQGTTVTVSS
VL: DIQMTQSPSSLSASVGDRVTITCRTSQDIGNYLNWYQQKPGKAVKLLIYYTSRLHSGVPSRFSGSGSGTDYTLTISSLQPEDIATYFCQQGKSLPRTFGGGTKVEIK
notes: Tested as human IgG1 / kappa antibody; only the variable regions are tied to this variant
B2: humanized anti-CEACAM-1 variant VH3/VK2, IgG4 (S241P) (antibody, V domains shown)
VH: QVQLVQSGAEVKKPGASVKVSCKASGYAFTNNLIEWVRQAPGQGLEWIGVINPGSGDTNYNEKFKGRATLTADKSINTAYMELSRLRSDDTAVYYCARGDYYGGFAVDYWGQGTTVTVSS
VL: DIQMTQSPSSLSASVGDRVTITCRTSQDIGNYLNWYQQKPGKAVKLLIYYTSRLHSGVPSRFSGSGSGTDYTLTISSLQPEDIATYFCQQGKSLPRTFGGGTKVEIK
notes: Tested as human IgG4 (S241P) / kappa antibody; only the variable regions are tied to this variant
B3: humanized anti-CEACAM-1 variant VH4/VK2, IgG4 (S241P) (antibody, V domains shown)
VH: QVQLVQSGAEVKKPGASVKVSCKASGYAFTNNLIEWVRQAPGQGLEWIGVINPGSGDTNYNEKFKGRATLTADKSISTAYMELSRLRSDDTAVYYCARGDYYGGFAVDYWGQGTTVTVSS
VL: DIQMTQSPSSLSASVGDRVTITCRTSQDIGNYLNWYQQKPGKAVKLLIYYTSRLHSGVPSRFSGSGSGTDYTLTISSLQPEDIATYFCQQGKSLPRTFGGGTKVEIK
notes: as for B2
B4: humanized anti-CEACAM-1 variant VH5/VK1, IgG1 (antibody, V domains shown)
VH: QVQLVQSGAEVKKPGASVKVSCKASGYAFTNNLIEWVRQAPGQGLEWIGVINPGSGDTNYNEKFKGRVTMTADKSISTAYMELSRLRSDDTAVYYCARGDYYGGFAVDYWGQGTTVTVSS
VL: DIQMTQSPSSLSASVGDRVTITCRTSQDIGNYLNWYQQKPGKAVKLLIYYTSRLHSGVPSRFSGSGSGTDYTLTISSLQQEDIATYFCQQGKSLPRTFGGGTKVEIK
notes: as for B1
B5: humanized anti-CEACAM-1 variant VH5/VK3, IgG1 (antibody, V domains shown)
VH: QVQLVQSGAEVKKPGASVKVSCKASGYAFTNNLIEWVRQAPGQGLEWIGVINPGSGDTNYNEKFKGRVTMTADKSISTAYMELSRLRSDDTAVYYCARGDYYGGFAVDYWGQGTTVTVSS
VL: DIQMTQSPSSLSASVGDRVTITCRTSQDIGNYLNWYQQKPGKAVKLLIYYTSRLHSGVPSRFSGSGSGTDYTFTISSLQPEDIATYFCQQGKSLPRTFGGGTKVEIK
notes: as for B1
B6: humanized anti-CEACAM-1 variant VH5/VK2, IgG1 (antibody, V domains shown)
VH: QVQLVQSGAEVKKPGASVKVSCKASGYAFTNNLIEWVRQAPGQGLEWIGVINPGSGDTNYNEKFKGRVTMTADKSISTAYMELSRLRSDDTAVYYCARGDYYGGFAVDYWGQGTTVTVSS
VL: DIQMTQSPSSLSASVGDRVTITCRTSQDIGNYLNWYQQKPGKAVKLLIYYTSRLHSGVPSRFSGSGSGTDYTLTISSLQPEDIATYFCQQGKSLPRTFGGGTKVEIK
notes: as for B1
B7: humanized anti-CEACAM-1 variant VH4/VK3, IgG1 (antibody, V domains shown)
VH: QVQLVQSGAEVKKPGASVKVSCKASGYAFTNNLIEWVRQAPGQGLEWIGVINPGSGDTNYNEKFKGRATLTADKSISTAYMELSRLRSDDTAVYYCARGDYYGGFAVDYWGQGTTVTVSS
VL: DIQMTQSPSSLSASVGDRVTITCRTSQDIGNYLNWYQQKPGKAVKLLIYYTSRLHSGVPSRFSGSGSGTDYTFTISSLQPEDIATYFCQQGKSLPRTFGGGTKVEIK
notes: as for B1
B8: humanized anti-CEACAM-1 variant VH4/VK3, IgG4 (S241P) (antibody, V domains shown)
VH: QVQLVQSGAEVKKPGASVKVSCKASGYAFTNNLIEWVRQAPGQGLEWIGVINPGSGDTNYNEKFKGRATLTADKSISTAYMELSRLRSDDTAVYYCARGDYYGGFAVDYWGQGTTVTVSS
VL: DIQMTQSPSSLSASVGDRVTITCRTSQDIGNYLNWYQQKPGKAVKLLIYYTSRLHSGVPSRFSGSGSGTDYTFTISSLQPEDIATYFCQQGKSLPRTFGGGTKVEIK
notes: as for B2
B9: humanized anti-CEACAM-1 variant VH5/VK3, IgG4 (S241P) (antibody, V domains shown)
VH: QVQLVQSGAEVKKPGASVKVSCKASGYAFTNNLIEWVRQAPGQGLEWIGVINPGSGDTNYNEKFKGRVTMTADKSISTAYMELSRLRSDDTAVYYCARGDYYGGFAVDYWGQGTTVTVSS
VL: DIQMTQSPSSLSASVGDRVTITCRTSQDIGNYLNWYQQKPGKAVKLLIYYTSRLHSGVPSRFSGSGSGTDYTFTISSLQPEDIATYFCQQGKSLPRTFGGGTKVEIK
notes: as for B2
B10: humanized anti-CEACAM-1 variant VH5/VK2, IgG4 (S241P) (antibody, V domains shown)
VH: QVQLVQSGAEVKKPGASVKVSCKASGYAFTNNLIEWVRQAPGQGLEWIGVINPGSGDTNYNEKFKGRVTMTADKSISTAYMELSRLRSDDTAVYYCARGDYYGGFAVDYWGQGTTVTVSS
VL: DIQMTQSPSSLSASVGDRVTITCRTSQDIGNYLNWYQQKPGKAVKLLIYYTSRLHSGVPSRFSGSGSGTDYTLTISSLQPEDIATYFCQQGKSLPRTFGGGTKVEIK
notes: as for B2
B11: humanized anti-CEACAM-1 variant VH5/VK1, IgG4 (S241P) (antibody, V domains shown)
VH: QVQLVQSGAEVKKPGASVKVSCKASGYAFTNNLIEWVRQAPGQGLEWIGVINPGSGDTNYNEKFKGRVTMTADKSISTAYMELSRLRSDDTAVYYCARGDYYGGFAVDYWGQGTTVTVSS
VL: DIQMTQSPSSLSASVGDRVTITCRTSQDIGNYLNWYQQKPGKAVKLLIYYTSRLHSGVPSRFSGSGSGTDYTLTISSLQQEDIATYFCQQGKSLPRTFGGGTKVEIK
notes: as for B2

target: T1, recombinant human CEACAM-1 (R&D Systems …); experiment: competition ELISA on coated recombinant human CEACAM-1; competitor biotinylated chimeric CM-10 IgG1
Description: The binding of the biotinylated antibody was detected with streptavidin-HRP (Sigma cat. no. S5512) and TMB substrate (Invitrogen cat. no. 00-2023). The reaction was stopped with 3M HC1, absorbance read at 450 nm on a Dynex Technologies MRX TC II plate reader and the binding curves plotted.

**Q.** How did the IC50 turn out when B1 was run?
**A.** The IC50 was 0.78 µg/mL.

**Q.** What about the “IC50 normalized to CM-10” value of the same binder?
**A.** The value was 1.24 ratio to IC50 of chimeric CM-10.

**Q.** What does the source list for B2?
**A.** IC50: 0.77 µg/mL; IC50 normalized to CM-10: 1.26 ratio to IC50 of chimeric CM-10

**Q.** Which results are given for B3?
**A.** IC50: 0.69 µg/mL; IC50 normalized to CM-10: 1.17 ratio to IC50 of chimeric CM-10

**Q.** With B4 as the binder, how does the IC50 read?
**A.** The IC50 was 0.77 µg/mL.

**Q.** What about the “IC50 normalized to CM-10” value of the same binder?
**A.** Its value is 1.17 ratio to IC50 of chimeric CM-10.

**Q.** B5 was tested. Which IC50 did it give?
**A.** Its IC50 is 0.74 µg/mL.

**Q.** What about the “IC50 normalized to CM-10” value of the same binder?
**A.** Its value is 1.12 ratio to IC50 of chimeric CM-10.

**Q.** For B6, which IC50 is on record?
**A.** The IC50 was 0.72 µg/mL.

**Q.** What about the “IC50 normalized to CM-10” value of the same binder?
**A.** Its value is 1.09 ratio to IC50 of chimeric CM-10.

**Q.** Which IC50 does the source give for B7 here?
**A.** The IC50 was 0.99 µg/mL.

**Q.** And the “IC50 normalized to CM-10” value?
**A.** Its value is 1.56 ratio to IC50 of chimeric CM-10.

**Q.** Which results are given for B8?
**A.** IC50: 0.63 µg/mL; IC50 normalized to CM-10: 1.06 ratio to IC50 of chimeric CM-10

**Q.** Which results are given for B9?
**A.** IC50: 0.7 µg/mL; IC50 normalized to CM-10: 1.17 ratio to IC50 of chimeric CM-10

**Q.** Which IC50 does the source give for B10 here?
**A.** Its IC50 is 0.7 µg/mL.

**Q.** And the “IC50 normalized to CM-10” value?
**A.** Its value is 1.16 ratio to IC50 of chimeric CM-10.

**Q.** For B11, which IC50 is on record?
**A.** The IC50 was 0.74 µg/mL.

**Q.** What about the “IC50 normalized to CM-10” value of the same binder?
**A.** The value was 1.23 ratio to IC50 of chimeric CM-10.
